Measured values from patent US8632989B1, “Mutant insulin degrading enzyme and methods of use” (University of Kentucky Research Foundation, priority 2011, dated 2014).

What was measured:
[1] = Fluorescence measurements of TNP-ATP binding, wild type rIDE and distal site mutants; details: hyperbolic one site binding fit, 20 °C
Method: The fluorescence increase on binding of (2,4,6-trinitrophenyl)ATP (TNP-ATP) is plotted for the indicated IDE constructs as a function of ligand concentration. Data were fit to a hyperbolic one site binding mechanism.
Fluorescence emission spectra of 10 μM TNP-ATP in […] Tris-HCl, pH7.4, was measured in the presence of 1.5 μM of each wild type IDE and the indicated IDE distal mutants. Fluorescence spectra were recorded with a λexc=403 nm on a Perkin-Elmer LS55 Luminescence Spectrometer.
Fluorescence measurements of TNP-ATP binding were performed on a Perkin-Elmer LS55 Luminescence Spectrometer. Titrations were monitored at an excitation wavelength of 403 nm and emission wavelength of 547 nm. The temperature of the sample was maintained at 20±0.1° C. by circulating thermostatically controlled water through the cuvette holder. Assays were conducted in 200 μL reaction mixtures containing 50 mM Tris-HCl, pH, 7.4, 10 μM Abz-[…]-EDDnp (SEQ ID NO:3) as substrate, and 0.5 μg wild type rIDE, 2.3 μg rIDE-V3605, 2.0 μg rIDE-I3745 or 1.62 μg rIDEY609F and the indicated concentration of ATP. The fluorescence of TNP-ATP was subtracted from the total fluorescence of enzyme+TNP-ATP to yield specific fluorescence enhancement (ΔF).

[2] = system: Saccharomyces cerevisiae; test: IDE activity assay in yeast, spot halo assay for a-factor production; format: cell-based; details: spot halo assay on RC757 lawn
Method: Panel A depicts immunoblot of yeast-expressed IDE and IDE^K898A,K899A,S901A. Equivalent percentage amounts of total cellular extracts from yeast containing an empty expression vector or plasmids encoding IDE or the IDE^K898A,K899A,S901A mutant were analyzed by SDS-PAGE and immunoblotting using an IDE-specific antibody. […] An excess of MATa yeast were mixed with decreasing numbers of MATa cells deficient for Axl1p and Step 23p that were transformed with either an empty expression vector or a vector encoding IDE or IDE^K898A,K899A,S901A as indicated. Mating, which leads to colony growth, is dependent on production of mature a-factor pheromone by plasmid-encoded IDE. […] Concentrated samples of a-factor recovered from yeast bearing the indicated expression vector were spotted at the indicated dilutions on a lawn of RC757 MATa cells, which undergo growth arrest upon exposure to a-factor pheromone. […]
The assays take advantage of the ability of IDE, in lieu of the yeast M16 metallopeptidases Axl1p and Step 23p, to participate in the proteolytic maturation of yeast a-factor mating pheromone. […] Growth of diploid colonies, indicative of mating, was scored 3 days after incubation of plates at 30° C. […] Results of mating tests and halo assays were recorded by scanning plates with a Microtek flatbed scanner and importing digitized images into Photoshop and PowerPoint.

B1: IDE: Native rat insulin degrading enzyme (SEQ ID NO:1), expressed as hexahistidine fusion protein in Sf9 insect cells (protein, listed as Rattus norvegicus)
chain: MRNGLVWLLHPALPSTLHSILGARPPPVKRLCGFPKQIYSTMNNPAIQRIEDHIVKSPEDKREYRGLELANGIKVLLISDPTTDKSSAALDVHIGSLSDPPNIPGLSHFCEHMLFLGTKKYPKENEYSQFLSEHAGSSNAFTSGEHTNYYFDVSHEHLEGALDRFAQFFLCPLFDASCKDREVNAVDSEHEKNVMNDAWRLFQLEKATGNPKHPFSKFGTGNKYTLETRPNQEGIDVREELLKFHSTYYSSNLMAICVLGRESLDDLTNLVVKLFSEVENKNVPLPEFPEHPFQEEHLKQLYKIVPIKDIRNLYVTFPIPDLQQYYKSNPGHYLGHLIGHEGPGSLLSELKSKGWVNTLVGGQKEGARGFMFFIINVDLTEEGLLHVEDIILHMFQYIQKLRAEGPQEWVFQECKDLNAVAFRFKDKERPRGYTSKIAGKLHYYPLNGVLTAEYLLEEFRPDLIDMVLDKLRPENVRVAIVSKSFEGKTDRTEQWYGTQYKQEAIPEDVIQKWQNADLNGKFKLPTKNEFIPTNFEILALEKDATPYPALIKDTAMSKLWFKQDDKFFLPKACLNFEFFSPFAYVDPLHCNMAYLYLELLKDSLNEYAYAAELAGLSYDLQNTIYGMYLSVKGYNDKQPILLKKITEKMATFEIDKKRFEIIKEAYMRSLNNFRAEQPHQHAMYYLRLLMTEVAWTKDELKEALDDVTLPRLKAFIPQLLSRLHIEALLHGNITKQAALGVMQMVEDTLIEHAHTKPLLPSQLVRYREVQLPDRGWFVYQRRNEVHNNCGIEIYYQTDMQSTSENMFLELFCQIISEPCFNTLRTKEQLGYIVFSGPRRANGIQGLRFIIQSEKPPHYLESRVEAFLITMEKAIEDMTEEAFQKHIQALAIRRLDKPKKLSAECAKYWGEIISQQYNYDRDNIEVAYLKTLSKDDIIKFYKEMLAVDAPRRHKVSVHVLAREMDSCPVVGEFPSQNDINLSEAPPLPQPEVIHNMTEFKRGLPLFPLVKPHINFMAAKL
modifications: hexahistidine tag; wild-type Insulin Degrading Enzyme (IDE) from rat
[1]
  Kd: 1000 ± 100 nM
[2]
  production of a-factor by yeast: greater production of a-factor
